Biological target: T1, 原核表达的带HIS标签的重组蛋白SBV-N (SBV, UniProt H2AM13 1-233)
T1 sequence: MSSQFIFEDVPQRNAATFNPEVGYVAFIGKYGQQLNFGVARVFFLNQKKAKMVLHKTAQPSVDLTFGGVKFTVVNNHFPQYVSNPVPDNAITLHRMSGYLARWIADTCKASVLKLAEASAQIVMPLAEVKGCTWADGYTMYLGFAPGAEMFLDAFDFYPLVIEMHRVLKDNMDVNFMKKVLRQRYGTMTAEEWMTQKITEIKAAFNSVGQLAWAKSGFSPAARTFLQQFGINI
Assay: Western blot, hybridoma supernatant on His-tagged recombinant protein

B1: 单克隆抗体2D3 (antibody, V domains shown)
VH: EVQLQQSKTELVRSGASVKLSCTASGFNIKDYFIHWVKQRPEQGLEWIGWIDPENGDTEYAPKFQGKATMTADTSSNTAYLQLGSLTSEDTAVYYCYSRGWHLENLEYWGQGTTLTVSS
VL: DVLMTQTPLSLPVSLGDQASISCRSSQSIVHSNGNTYLEWYLQKPGQSPKLLIYKVSNRFSGVPDRFSGSGSGTDFTLKISRVEAEDLGVYYCFQGSHVPRTFGGGTKLEIKR
notes: also called 2D3单抗; 2D3抗体
B1: no binding.
